Test results published in patent US20200079833A1 (AstraZeneca / MedImmune, published 2020).
Starred links: 1 amine or outer side, 2 acyl side, 3 side chain; linkers in the order of their positions; H or OH if unused. Non-standard residues stand in square brackets, D forms with d. Groups on a side chain read outwards from the residue. No end group written: not given here. *: point of attachment. γGlu = O=C(O)[C@H](CCC(=O)[*:2])N[*:1]; Palmitoyl = CCCCCCCCCCCCCCCC(=O)*; αMeF = C[C@](N)(Cc1ccccc1)C(=O)O; αMeK = C[C@](N)(CCCCN)C(=O)O; αMeS = C[C@](N)(CO)C(=O)O; Aib = CC(C)(N)C(=O)O

T1: glucose-dependent insulinotropic peptide (gastric inhibitory polypeptide) receptor (GIPR) (human, UniProt P48546 22-466)
T1 sequence (looked up): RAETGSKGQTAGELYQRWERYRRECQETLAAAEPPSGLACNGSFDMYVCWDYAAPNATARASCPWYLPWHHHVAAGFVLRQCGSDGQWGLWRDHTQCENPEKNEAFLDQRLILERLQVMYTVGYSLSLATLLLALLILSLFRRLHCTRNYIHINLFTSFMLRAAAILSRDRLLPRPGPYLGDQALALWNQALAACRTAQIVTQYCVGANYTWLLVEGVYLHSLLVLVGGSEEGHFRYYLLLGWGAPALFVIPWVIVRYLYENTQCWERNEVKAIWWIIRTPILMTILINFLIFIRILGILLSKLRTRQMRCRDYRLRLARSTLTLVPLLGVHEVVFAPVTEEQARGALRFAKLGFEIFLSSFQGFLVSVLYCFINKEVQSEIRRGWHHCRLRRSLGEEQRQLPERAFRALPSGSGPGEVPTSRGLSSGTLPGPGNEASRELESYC

B1: SEQ ID NO 83 (peptide)
peptide: H[Aib]EGS[αMeF]TSDV[αMeS]S[αMeF]LEGK([γGlu-Palmitoyl])AA[αMeK]E[αMeF]IA[αMeF]VV[αMeK]GG-NH2
modifications: N-terminus assumed
SMILES: CCCCCCCCCCCCCCCC(=O)N[C@@H](CCC(=O)NCCCC[C@H](NC(=O)CNC(=O)[C@H](CCC(=O)O)NC(=O)[C@H](CC(C)C)NC(=O)[C@](C)(Cc1ccccc1)NC(=O)[C@H](CO)NC(=O)[C@](C)(CO)NC(=O)[C@@H](NC(=O)[C@H](CC(=O)O)NC(=O)[C@H](CO)NC(=O)[C@@H](NC(=O)[C@](C)(Cc1ccccc1)NC(=O)[C@H](CO)NC(=O)CNC(=O)[C@H](CCC(=O)O)NC(=O)C(C)(C)NC(=O)[C@@H](N)Cc1c[nH]cn1)[C@@H](C)O)C(C)C)C(=O)N[C@@H](C)C(=O)N[C@@H](C)C(=O)N[C@@](C)(CCCCN)C(=O)N[C@@H](CCC(=O)O)C(=O)N[C@@](C)(Cc1ccccc1)C(=O)N[C@H](C(=O)N[C@@H](C)C(=O)N[C@@](C)(Cc1ccccc1)C(=O)N[C@H](C(=O)N[C@H](C(=O)N[C@@](C)(CCCCN)C(=O)NCC(=O)NCC(N)=O)C(C)C)C(C)C)[C@@H](C)CC)C(=O)O
B2: SEQ ID NO 78 (peptide)
peptide: H[Aib]EGS[αMeF]TSDV[αMeS]S[αMeF]LEGEAA[αMeK]EK([γGlu-Palmitoyl])IA[αMeF]VV[αMeK]GG-NH2
modifications: N-terminus assumed
SMILES: CCCCCCCCCCCCCCCC(=O)N[C@@H](CCC(=O)NCCCC[C@H](NC(=O)[C@H](CCC(=O)O)NC(=O)[C@](C)(CCCCN)NC(=O)[C@H](C)NC(=O)[C@H](C)NC(=O)[C@H](CCC(=O)O)NC(=O)CNC(=O)[C@H](CCC(=O)O)NC(=O)[C@H](CC(C)C)NC(=O)[C@](C)(Cc1ccccc1)NC(=O)[C@H](CO)NC(=O)[C@](C)(CO)NC(=O)[C@@H](NC(=O)[C@H](CC(=O)O)NC(=O)[C@H](CO)NC(=O)[C@@H](NC(=O)[C@](C)(Cc1ccccc1)NC(=O)[C@H](CO)NC(=O)CNC(=O)[C@H](CCC(=O)O)NC(=O)C(C)(C)NC(=O)[C@@H](N)Cc1c[nH]cn1)[C@@H](C)O)C(C)C)C(=O)N[C@H](C(=O)N[C@@H](C)C(=O)N[C@@](C)(Cc1ccccc1)C(=O)N[C@H](C(=O)N[C@H](C(=O)N[C@@](C)(CCCCN)C(=O)NCC(=O)NCC(N)=O)C(C)C)C(C)C)[C@@H](C)CC)C(=O)O
B3: SEQ ID NO 82 (peptide)
peptide: H[Aib]EGS[αMeF]TSDV[αMeS]S[αMeF]LEGEK([γGlu-Palmitoyl])A[αMeK]E[αMeF]IA[αMeF]VV[αMeK]GG-NH2
modifications: N-terminus assumed
SMILES: CCCCCCCCCCCCCCCC(=O)N[C@@H](CCC(=O)NCCCC[C@H](NC(=O)[C@H](CCC(=O)O)NC(=O)CNC(=O)[C@H](CCC(=O)O)NC(=O)[C@H](CC(C)C)NC(=O)[C@](C)(Cc1ccccc1)NC(=O)[C@H](CO)NC(=O)[C@](C)(CO)NC(=O)[C@@H](NC(=O)[C@H](CC(=O)O)NC(=O)[C@H](CO)NC(=O)[C@@H](NC(=O)[C@](C)(Cc1ccccc1)NC(=O)[C@H](CO)NC(=O)CNC(=O)[C@H](CCC(=O)O)NC(=O)C(C)(C)NC(=O)[C@@H](N)Cc1c[nH]cn1)[C@@H](C)O)C(C)C)C(=O)N[C@@H](C)C(=O)N[C@@](C)(CCCCN)C(=O)N[C@@H](CCC(=O)O)C(=O)N[C@@](C)(Cc1ccccc1)C(=O)N[C@H](C(=O)N[C@@H](C)C(=O)N[C@@](C)(Cc1ccccc1)C(=O)N[C@H](C(=O)N[C@H](C(=O)N[C@@](C)(CCCCN)C(=O)NCC(=O)NCC(N)=O)C(C)C)C(C)C)[C@@H](C)CC)C(=O)O
B4: SEQ ID NO 80 (peptide)
peptide: H[Aib]EGS[αMeF]TSDV[αMeS]S[αMeF]LEGEAAK([γGlu-Palmitoyl])E[αMeF]IA[αMeF]VV[αMeK]GG-NH2
modifications: N-terminus assumed
SMILES: CCCCCCCCCCCCCCCC(=O)N[C@@H](CCC(=O)NCCCC[C@H](NC(=O)[C@H](C)NC(=O)[C@H](C)NC(=O)[C@H](CCC(=O)O)NC(=O)CNC(=O)[C@H](CCC(=O)O)NC(=O)[C@H](CC(C)C)NC(=O)[C@](C)(Cc1ccccc1)NC(=O)[C@H](CO)NC(=O)[C@](C)(CO)NC(=O)[C@@H](NC(=O)[C@H](CC(=O)O)NC(=O)[C@H](CO)NC(=O)[C@@H](NC(=O)[C@](C)(Cc1ccccc1)NC(=O)[C@H](CO)NC(=O)CNC(=O)[C@H](CCC(=O)O)NC(=O)C(C)(C)NC(=O)[C@@H](N)Cc1c[nH]cn1)[C@@H](C)O)C(C)C)C(=O)N[C@@H](CCC(=O)O)C(=O)N[C@@](C)(Cc1ccccc1)C(=O)N[C@H](C(=O)N[C@@H](C)C(=O)N[C@@](C)(Cc1ccccc1)C(=O)N[C@H](C(=O)N[C@H](C(=O)N[C@@](C)(CCCCN)C(=O)NCC(=O)NCC(N)=O)C(C)C)C(C)C)[C@@H](C)CC)C(=O)O
B5: SEQ ID NO 79 (peptide)
peptide: H[Aib]EGS[αMeF]TSDV[αMeS]S[αMeF]LEGEAA[αMeK]K([γGlu-Palmitoyl])[αMeF]IA[αMeF]VV[αMeK]GG-NH2
modifications: N-terminus assumed
SMILES: CCCCCCCCCCCCCCCC(=O)N[C@@H](CCC(=O)NCCCC[C@H](NC(=O)[C@](C)(CCCCN)NC(=O)[C@H](C)NC(=O)[C@H](C)NC(=O)[C@H](CCC(=O)O)NC(=O)CNC(=O)[C@H](CCC(=O)O)NC(=O)[C@H](CC(C)C)NC(=O)[C@](C)(Cc1ccccc1)NC(=O)[C@H](CO)NC(=O)[C@](C)(CO)NC(=O)[C@@H](NC(=O)[C@H](CC(=O)O)NC(=O)[C@H](CO)NC(=O)[C@@H](NC(=O)[C@](C)(Cc1ccccc1)NC(=O)[C@H](CO)NC(=O)CNC(=O)[C@H](CCC(=O)O)NC(=O)C(C)(C)NC(=O)[C@@H](N)Cc1c[nH]cn1)[C@@H](C)O)C(C)C)C(=O)N[C@@](C)(Cc1ccccc1)C(=O)N[C@H](C(=O)N[C@@H](C)C(=O)N[C@@](C)(Cc1ccccc1)C(=O)N[C@H](C(=O)N[C@H](C(=O)N[C@@](C)(CCCCN)C(=O)NCC(=O)NCC(N)=O)C(C)C)C(C)C)[C@@H](C)CC)C(=O)O
B6: SEQ ID NO 81 (peptide)
peptide: H[Aib]EGS[αMeF]TSDV[αMeS]S[αMeF]LEGEAK([γGlu-Palmitoyl])[αMeK]E[αMeF]IA[αMeF]VV[αMeK]GG-NH2
modifications: N-terminus assumed
SMILES: CCCCCCCCCCCCCCCC(=O)N[C@@H](CCC(=O)NCCCC[C@H](NC(=O)[C@H](C)NC(=O)[C@H](CCC(=O)O)NC(=O)CNC(=O)[C@H](CCC(=O)O)NC(=O)[C@H](CC(C)C)NC(=O)[C@](C)(Cc1ccccc1)NC(=O)[C@H](CO)NC(=O)[C@](C)(CO)NC(=O)[C@@H](NC(=O)[C@H](CC(=O)O)NC(=O)[C@H](CO)NC(=O)[C@@H](NC(=O)[C@](C)(Cc1ccccc1)NC(=O)[C@H](CO)NC(=O)CNC(=O)[C@H](CCC(=O)O)NC(=O)C(C)(C)NC(=O)[C@@H](N)Cc1c[nH]cn1)[C@@H](C)O)C(C)C)C(=O)N[C@@](C)(CCCCN)C(=O)N[C@@H](CCC(=O)O)C(=O)N[C@@](C)(Cc1ccccc1)C(=O)N[C@H](C(=O)N[C@@H](C)C(=O)N[C@@](C)(Cc1ccccc1)C(=O)N[C@H](C(=O)N[C@H](C(=O)N[C@@](C)(CCCCN)C(=O)NCC(=O)NCC(N)=O)C(C)C)C(C)C)[C@@H](C)CC)C(=O)O

Experiments:
Experiment in all cases: cell-based or functional assay
[1] = biological target: GLP-1 receptor (GLP-1R) (human, UniProt P43220 24-463)
[2] = biological target: glucagon receptor (GCGR) (human, UniProt P47871 26-477)
[3] = biological target: T1, glucose-dependent insulinotropic …

Chain of glucagon receptor (GCGR) (P47871 26-477): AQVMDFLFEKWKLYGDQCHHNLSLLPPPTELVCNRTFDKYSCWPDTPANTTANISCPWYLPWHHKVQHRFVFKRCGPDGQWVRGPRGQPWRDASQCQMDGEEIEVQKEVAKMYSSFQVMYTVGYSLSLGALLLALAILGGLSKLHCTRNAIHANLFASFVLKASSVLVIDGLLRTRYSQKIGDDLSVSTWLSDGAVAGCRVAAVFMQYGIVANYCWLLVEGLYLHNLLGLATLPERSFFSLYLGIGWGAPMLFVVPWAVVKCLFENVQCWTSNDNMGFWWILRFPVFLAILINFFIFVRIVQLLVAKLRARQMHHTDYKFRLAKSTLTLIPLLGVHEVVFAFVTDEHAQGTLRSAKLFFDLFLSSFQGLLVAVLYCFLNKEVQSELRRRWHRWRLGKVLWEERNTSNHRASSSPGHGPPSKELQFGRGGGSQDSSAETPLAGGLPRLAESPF

Binder | cAMP Mean pM GLP-1R [1] | cAMP Primary assay EC50 GLP-1R n1 [1] | cAMP Primary assay EC50 GLP-1R n2 [1] | cAMP Primary assay EC50 Gluc-R [2] | cAMP Primary assay EC50 Gluc-R (2nd) [2] | cAMP Primary assay EC50 GIP-R [3] | cAMP Primary assay EC50 GIP-R (2nd) [3]
B1 | 3.6 pM | 0.0032 nM | 0.004 nM | 28 nM | 28 nM | 28 nM | 28 nM
B2 | 14 pM | 0.018 nM | 0.0093 nM | 28 nM | 28 nM | 28 nM | 28 nM
B3 | 2.5 pM | 0.003 nM | 0.002 nM | 27 nM | 27 nM | 27 nM | 27 nM
B4 | 24 pM | 0.031 nM | 0.017 nM | 28 nM | 28 nM | 28 nM | 28 nM
B5 | 3.1 pM | 0.0039 nM | 0.0023 nM | 28 nM | 28 nM | 28 nM | 28 nM
B6 | 283 pM | 0.37 nM | 0.2 nM | 27 nM | 27 nM | 27 nM | 27 nM
